Assay results from patent US20110195900A1, “PEPTIDIC PTH RECEPTOR AGONISTS” (FERRING B.V., priority 2008, published 2011).
Non-standard residues stand in square brackets, D forms with d. Residues, ends and D or L forms follow the SMILES beside them. No end group written: not given here. 1Nal = N[C@@H](Cc1cccc2ccccc12)C(=O)O; 2Nal = N[C@@H](Cc1ccc2ccccc2c1)C(=O)O; β3hI = CC[C@H](C)[C@H](N)CC(=O)O; β3hR = N=C(N)NCCC[C@H](N)CC(=O)O; Nle = CCCC[C@H](N)C(=O)O; β3hA = C[C@H](N)CC(=O)O; Aib = CC(C)(N)C(=O)O; βAla = NCCC(=O)O

How the values were obtained:
[1] = biological target: T1, human PTH-1 receptor (Homo sapiens, UniProt Q03431); assay: Reporter gene assay (CRE-luciferase) for agonist activity in transiently transfected HEK-293 cells; assay type: cell-based; settings: for hPTHR-2/hPTHR-1: Table 3, ratio of EC50 values, selectivity for hPTH-1 receptor over hPTH-2 receptor
T1 construct: expressed in transfected cells; host or cells: HEK-293
T1 sequence (Q03431 27-593): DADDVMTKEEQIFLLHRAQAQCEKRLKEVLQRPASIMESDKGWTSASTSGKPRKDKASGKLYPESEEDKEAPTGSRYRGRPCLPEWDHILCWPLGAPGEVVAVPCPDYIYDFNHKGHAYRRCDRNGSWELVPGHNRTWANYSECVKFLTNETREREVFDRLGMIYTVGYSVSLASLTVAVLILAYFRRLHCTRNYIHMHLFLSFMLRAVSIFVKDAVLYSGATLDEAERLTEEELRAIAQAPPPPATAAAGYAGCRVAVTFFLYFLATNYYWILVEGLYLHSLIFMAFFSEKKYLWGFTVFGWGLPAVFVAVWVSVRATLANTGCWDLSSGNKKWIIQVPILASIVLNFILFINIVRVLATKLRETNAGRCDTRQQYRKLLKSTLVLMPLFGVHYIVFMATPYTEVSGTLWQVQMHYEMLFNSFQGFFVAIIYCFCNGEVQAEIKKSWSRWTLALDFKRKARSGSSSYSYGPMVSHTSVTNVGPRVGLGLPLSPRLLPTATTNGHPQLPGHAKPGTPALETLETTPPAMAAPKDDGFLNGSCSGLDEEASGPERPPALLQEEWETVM
Outline: (§1)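 Selectivity came from luciferase transcriptional reporter assays expressing human PTH-2 receptor. PTH-1 agonism used transiently transfected HEK-293 cells carrying SV40-promoter receptor and cAMP-responsive-element luciferase; 4-5 h compound exposure, lysis, luminescence, non-linear-regression EC50/efficacy; ≥3 independent runs, PTH (1-34) control each.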

[2] = biological target: T2, human PTH-2 receptor (Homo sapiens, UniProt P49190); assay: Luciferase-based transcriptional reporter gene assay for selectivity; assay type: cell-based
T2 construct: expressed in transfected cells
Outline: as §1

[3] = biological target: human parathyroid hormone receptor 1 (human, UniProt Q03431); assay: cell-based or functional assay
[4] = biological target: human parathyroid hormone receptor 2 (human, UniProt P49190); assay: cell-based or functional assay

T2 sequence (P49190 25-550): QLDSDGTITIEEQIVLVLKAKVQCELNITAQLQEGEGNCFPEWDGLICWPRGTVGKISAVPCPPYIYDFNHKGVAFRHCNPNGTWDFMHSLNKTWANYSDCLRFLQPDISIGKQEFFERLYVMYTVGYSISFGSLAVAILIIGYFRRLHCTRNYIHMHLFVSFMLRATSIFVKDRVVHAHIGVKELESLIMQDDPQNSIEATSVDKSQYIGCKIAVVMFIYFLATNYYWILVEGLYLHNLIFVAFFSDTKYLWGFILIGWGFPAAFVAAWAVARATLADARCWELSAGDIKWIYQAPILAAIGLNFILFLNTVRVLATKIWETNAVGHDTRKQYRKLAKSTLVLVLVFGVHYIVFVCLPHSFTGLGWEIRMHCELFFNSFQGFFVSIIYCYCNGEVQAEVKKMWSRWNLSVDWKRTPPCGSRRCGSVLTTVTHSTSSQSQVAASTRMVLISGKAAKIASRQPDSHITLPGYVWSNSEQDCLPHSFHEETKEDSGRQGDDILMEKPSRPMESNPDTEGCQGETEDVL

Molecule	hPTHR-1 EC50 (nM), CRE-luciferase reporter gene assay [3] [nM]	hPTHR-2 EC50 (nM), luciferase reporter gene assay [4] [nM]	EC50 [1] [nM]	hPTHR-2/hPTHR-1 [1]	EC50 [2] [nM]
CCCC[C@H](NC(=O)[C@H](CC(C)C)NC(=O)[C@H](CCC(N)=O)NC(=O)[C@@H](NC(=O)[C@H](CCC(=O)O)NC(=O)[C@H](CO)NC(=O)[C@@H](NC(=O)C(C)(C)N)C(C)C)[C@@H](C)CC)C(=O)N[C@@H](Cc1c[nH]cn1)C(=O)N[C@@H](CO)C(=O)N[C@@H](CC(C)C)C(=O)NCC(=O)N[C@@H](CCCCN)C(=O)N[C@@H](Cc1c[nH]cn1)C(=O)N[C@@H](CC(C)C)C(=O)N[C@@H](CCCCN)C(=O)N[C@@H](CO)C(=O)N[C@H](CC(=O)N[C@@H](CCC(=O)O)C(=O)N[C@@H](CCCNC(=N)N)C(=O)N[C@H](C(=O)N[C@@H](CCC(=O)O)C(=O)N[C@@H](Cc1cccc2ccccc12)C(=O)N[C@@H](CC(C)C)C(=O)N[C@@H](CCCNC(=N)N)C(=O)N[C@@H](CCCCN)C(=O)N[C@@H](CC(C)C)C(=O)N[C@@H](CC(C)C)C(=O)N[C@@H](CCC(N)=O)C(=O)N[C@@H](CCCNC(=N)N)C(=O)N[C@H](C(=O)N[C@@H](Cc1c[nH]cn1)C(=O)N[C@@H](CCC(=O)O)C(=O)N[C@@H](Cc1ccccc1)C(N)=O)C(C)C)C(C)C)[C@@H](C)CC [SEQ ID NO: 38, [Aib^1, Nle^8, Ser^10, Lys^16, β-hIle^18,1-Nal^23, Leu^27, Arg^30, Glu^33] hPTH (1-34)-NH2] (H-[Aib]VSEIQL[Nle]HSLGKHLKS[β3hI]ERVE[1Nal]LRKLLQRVHEF-NH2)			0.09	61	6
CCCC[C@H](NC(=O)[C@H](CC(C)C)NC(=O)[C@H](CCC(N)=O)NC(=O)[C@@H](NC(=O)[C@H](CCC(=O)O)NC(=O)[C@H](CO)NC(=O)[C@@H](NC(=O)[C@@H](N)CO)C(C)C)[C@@H](C)CC)C(=O)N[C@@H](Cc1c[nH]cn1)C(=O)N[C@@H](CCC(=O)O)C(=O)N[C@@H](CC(C)C)C(=O)NCC(=O)N[C@@H](CCCCN)C(=O)N[C@@H](Cc1c[nH]cn1)C(=O)N[C@@H](CC(C)C)C(=O)N[C@@H](CC(N)=O)C(=O)N[C@@H](CO)C(=O)N[C@H](CC(=O)N[C@@H](CCC(=O)O)C(=O)N[C@@H](CCCNC(=N)N)C(=O)N[C@H](C(=O)N[C@@H](CCC(=O)O)C(=O)N[C@@H](Cc1cccc2ccccc12)C(=O)N[C@@H](CC(C)C)C(=O)N[C@@H](CCCNC(=N)N)C(=O)N[C@@H](CCCCN)C(=O)N[C@@H](CC(C)C)C(=O)N[C@@H](CC(C)C)C(=O)N[C@@H](CCC(N)=O)C(=O)N[C@@H](CC(=O)O)C(=O)N[C@H](C(=O)N[C@@H](Cc1c[nH]cn1)C(=O)N[C@@H](CC(N)=O)C(=O)N[C@@H](Cc1ccccc1)C(N)=O)C(C)C)C(C)C)[C@@H](C)CC [SEQ ID NO: 24, [Nle^8, Glu^10, β-hIle^18,1-Nal^23, Leu^27] hPTH (1-34)-NH2] (H-SVSEIQL[Nle]HELGKHLNS[β3hI]ERVE[1Nal]LRKLLQDVHNF-NH2)			0.13	24	3
[Aib]VSEIQL[Nle]HNLGKHLN[βAla][Nle]ERVE[1Nal]LRKKLQDVHNF-NH2 (N-terminus assumed; SMILES CCCC[C@H](NC(=O)CCNC(=O)[C@H](CC(N)=O)NC(=O)[C@H](CC(C)C)NC(=O)[C@H](Cc1c[nH]cn1)NC(=O)[C@H](CCCCN)NC(=O)CNC(=O)[C@H](CC(C)C)NC(=O)[C@H](CC(N)=O)NC(=O)[C@H](Cc1c[nH]cn1)NC(=O)[C@H](CCCC)NC(=O)[C@H](CC(C)C)NC(=O)[C@H](CCC(N)=O)NC(=O)[C@@H](NC(=O)[C@H](CCC(=O)O)NC(=O)[C@H](CO)NC(=O)[C@@H](NC(=O)C(C)(C)N)C(C)C)[C@@H](C)CC)C(=O)N[C@@H](CCC(=O)O)C(=O)N[C@@H](CCCNC(=N)N)C(=O)N[C@H](C(=O)N[C@@H](CCC(=O)O)C(=O)N[C@@H](Cc1cccc2ccccc12)C(=O)N[C@@H](CC(C)C)C(=O)N[C@@H](CCCNC(=N)N)C(=O)N[C@@H](CCCCN)C(=O)N[C@@H](CCCCN)C(=O)N[C@@H](CC(C)C)C(=O)N[C@@H](CCC(N)=O)C(=O)N[C@@H](CC(=O)O)C(=O)N[C@H](C(=O)N[C@@H](Cc1c[nH]cn1)C(=O)N[C@@H](CC(N)=O)C(=O)N[C@@H](Cc1ccccc1)C(N)=O)C(C)C)C(C)C) [[Aib^1, Nle^8,18, β-Ala^17, 1-Nal^23] hPTH (1-34)-NH2]	0.22	46			
SVSEIQL[Nle]HNLGKHLNS[β3hA]ERVE[2Nal]LRKKLQDVHNF-NH2 (N-terminus assumed; SMILES CCCC[C@H](NC(=O)[C@H](CC(C)C)NC(=O)[C@H](CCC(N)=O)NC(=O)[C@@H](NC(=O)[C@H](CCC(=O)O)NC(=O)[C@H](CO)NC(=O)[C@@H](NC(=O)[C@@H](N)CO)C(C)C)[C@@H](C)CC)C(=O)N[C@@H](Cc1c[nH]cn1)C(=O)N[C@@H](CC(N)=O)C(=O)N[C@@H](CC(C)C)C(=O)NCC(=O)N[C@@H](CCCCN)C(=O)N[C@@H](Cc1c[nH]cn1)C(=O)N[C@@H](CC(C)C)C(=O)N[C@@H](CC(N)=O)C(=O)N[C@@H](CO)C(=O)N[C@@H](C)CC(=O)N[C@@H](CCC(=O)O)C(=O)N[C@@H](CCCNC(=N)N)C(=O)N[C@H](C(=O)N[C@@H](CCC(=O)O)C(=O)N[C@@H](Cc1ccc2ccccc2c1)C(=O)N[C@@H](CC(C)C)C(=O)N[C@@H](CCCNC(=N)N)C(=O)N[C@@H](CCCCN)C(=O)N[C@@H](CCCCN)C(=O)N[C@@H](CC(C)C)C(=O)N[C@@H](CCC(N)=O)C(=O)N[C@@H](CC(=O)O)C(=O)N[C@H](C(=O)N[C@@H](Cc1c[nH]cn1)C(=O)N[C@@H](CC(N)=O)C(=O)N[C@@H](Cc1ccccc1)C(N)=O)C(C)C)C(C)C) [[Nle^8, β-hAla^18, 2-Nal^23] hPTH (1-34)-NH2]	0.34	73			

Second part, led by results:

hPTHR-1 EC50 (nM), CRE-luciferase reporter gene assay [3] [nM]	hPTHR-2 EC50 (nM), luciferase reporter gene assay [4] [nM]	Molecule	EC50 [1] [nM]	hPTHR-2/hPTHR-1 [1]	EC50 [2] [nM]
0.24	36	SVSEIQL[Nle]HNLGKHLNS[β3hR]ERVE[2Nal]LRKKLQDVHNF-NH2 (N-terminus assumed; SMILES CCCC[C@H](NC(=O)[C@H](CC(C)C)NC(=O)[C@H](CCC(N)=O)NC(=O)[C@@H](NC(=O)[C@H](CCC(=O)O)NC(=O)[C@H](CO)NC(=O)[C@@H](NC(=O)[C@@H](N)CO)C(C)C)[C@@H](C)CC)C(=O)N[C@@H](Cc1c[nH]cn1)C(=O)N[C@@H](CC(N)=O)C(=O)N[C@@H](CC(C)C)C(=O)NCC(=O)N[C@@H](CCCCN)C(=O)N[C@@H](Cc1c[nH]cn1)C(=O)N[C@@H](CC(C)C)C(=O)N[C@@H](CC(N)=O)C(=O)N[C@@H](CO)C(=O)N[C@@H](CCCNC(=N)N)CC(=O)N[C@@H](CCC(=O)O)C(=O)N[C@@H](CCCNC(=N)N)C(=O)N[C@H](C(=O)N[C@@H](CCC(=O)O)C(=O)N[C@@H](Cc1ccc2ccccc2c1)C(=O)N[C@@H](CC(C)C)C(=O)N[C@@H](CCCNC(=N)N)C(=O)N[C@@H](CCCCN)C(=O)N[C@@H](CCCCN)C(=O)N[C@@H](CC(C)C)C(=O)N[C@@H](CCC(N)=O)C(=O)N[C@@H](CC(=O)O)C(=O)N[C@H](C(=O)N[C@@H](Cc1c[nH]cn1)C(=O)N[C@@H](CC(N)=O)C(=O)N[C@@H](Cc1ccccc1)C(N)=O)C(C)C)C(C)C) [[Nle^8, β-hArg^18, 2-Nal^23] hPTH (1-34)-NH2]			
0.25	42	SVSEIQL[Nle]HNLGKHLNS[β3hI]ERVE[2Nal]LRKKLQDVHNF-NH2 (N-terminus assumed; SMILES CCCC[C@H](NC(=O)[C@H](CC(C)C)NC(=O)[C@H](CCC(N)=O)NC(=O)[C@@H](NC(=O)[C@H](CCC(=O)O)NC(=O)[C@H](CO)NC(=O)[C@@H](NC(=O)[C@@H](N)CO)C(C)C)[C@@H](C)CC)C(=O)N[C@@H](Cc1c[nH]cn1)C(=O)N[C@@H](CC(N)=O)C(=O)N[C@@H](CC(C)C)C(=O)NCC(=O)N[C@@H](CCCCN)C(=O)N[C@@H](Cc1c[nH]cn1)C(=O)N[C@@H](CC(C)C)C(=O)N[C@@H](CC(N)=O)C(=O)N[C@@H](CO)C(=O)N[C@H](CC(=O)N[C@@H](CCC(=O)O)C(=O)N[C@@H](CCCNC(=N)N)C(=O)N[C@H](C(=O)N[C@@H](CCC(=O)O)C(=O)N[C@@H](Cc1ccc2ccccc2c1)C(=O)N[C@@H](CC(C)C)C(=O)N[C@@H](CCCNC(=N)N)C(=O)N[C@@H](CCCCN)C(=O)N[C@@H](CCCCN)C(=O)N[C@@H](CC(C)C)C(=O)N[C@@H](CCC(N)=O)C(=O)N[C@@H](CC(=O)O)C(=O)N[C@H](C(=O)N[C@@H](Cc1c[nH]cn1)C(=O)N[C@@H](CC(N)=O)C(=O)N[C@@H](Cc1ccccc1)C(N)=O)C(C)C)C(C)C)[C@@H](C)CC) [[Nle^8, β-hIle^18, 2-Nal^23] hPTH (1-34)-NH2]			
